From patent publication US20250289897A1, “LEPTIN RECEPTOR AGONISTIC ANTIBODY AS MONO OR COMBO THERAPIES TO TREAT OBESITY” (ELI LILLY AND COMPANY, priority 2024, published 2025)

Columns and labels:
human LEPR [1] = biological target: T1, human LEPR (Homo sapiens, UniProt P48357); assay: STAT3-luciferase reporter assay in HEK293-STAT3Luc-hLepR1 cells; format: cell-based
T1 construct: introducing DNA plasmids encoding full-length LEPR of different species and STAT3-luciferase reporter gene into HEK293 cells; expressed in transfected cells; host or cells: HEK293 (HEK293-STAT3Luc-hLepR1)
T1 sequence (P48357 22-1165): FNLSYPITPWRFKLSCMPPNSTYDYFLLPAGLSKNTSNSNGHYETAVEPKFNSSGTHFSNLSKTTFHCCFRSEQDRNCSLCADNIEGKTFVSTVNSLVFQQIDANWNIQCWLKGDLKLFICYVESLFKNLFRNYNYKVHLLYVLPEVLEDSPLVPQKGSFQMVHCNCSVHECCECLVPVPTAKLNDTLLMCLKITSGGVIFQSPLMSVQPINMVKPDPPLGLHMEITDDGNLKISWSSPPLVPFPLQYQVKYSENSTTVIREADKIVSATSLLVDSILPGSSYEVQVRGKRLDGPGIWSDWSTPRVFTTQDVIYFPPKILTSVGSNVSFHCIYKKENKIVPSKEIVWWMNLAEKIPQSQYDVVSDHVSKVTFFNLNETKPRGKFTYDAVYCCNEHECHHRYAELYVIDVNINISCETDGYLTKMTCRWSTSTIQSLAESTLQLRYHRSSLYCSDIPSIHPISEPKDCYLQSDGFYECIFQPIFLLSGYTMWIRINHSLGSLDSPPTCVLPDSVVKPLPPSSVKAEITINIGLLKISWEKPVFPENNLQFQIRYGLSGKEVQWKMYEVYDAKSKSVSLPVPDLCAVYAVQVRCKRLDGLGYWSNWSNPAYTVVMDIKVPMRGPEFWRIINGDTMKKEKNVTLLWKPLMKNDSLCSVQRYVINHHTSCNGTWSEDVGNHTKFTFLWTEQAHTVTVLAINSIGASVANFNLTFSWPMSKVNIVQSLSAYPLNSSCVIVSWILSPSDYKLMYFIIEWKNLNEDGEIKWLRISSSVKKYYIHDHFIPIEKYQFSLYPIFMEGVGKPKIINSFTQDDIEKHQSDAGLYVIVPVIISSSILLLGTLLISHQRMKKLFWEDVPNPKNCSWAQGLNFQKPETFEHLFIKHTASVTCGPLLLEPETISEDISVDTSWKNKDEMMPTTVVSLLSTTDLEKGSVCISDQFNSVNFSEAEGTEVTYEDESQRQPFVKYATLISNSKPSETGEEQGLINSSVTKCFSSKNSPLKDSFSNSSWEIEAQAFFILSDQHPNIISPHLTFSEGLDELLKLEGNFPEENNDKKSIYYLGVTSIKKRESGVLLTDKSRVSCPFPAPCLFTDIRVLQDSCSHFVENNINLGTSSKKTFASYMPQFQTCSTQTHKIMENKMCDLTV
Text: (§1) LEPR is a cell surface single-pass transmembrane receptor. Activation of LEPR leads to phosphorylation of intracellular STAT3 (pSTAT3) and subsequent target gene transcription. To measure LEPR activation by anti-LEPR antibodies in the present disclosure, five independent STAT-luciferase reporter cell lines were established by introducing DNA plasmids encoding full-length LEPR of different species and STAT3-luciferase reporter gene into HEK293 cells (Table 4). […]
(§2) Before plating the cells for luciferase assays, the poly-D-Lysine coated 96-well plates (Corning Inc, #354651) were rinsed once with phosphate buffered solution (PBS). […] Cell lysing and One-Glo luciferase substrate solution (Promega, #E6120) were then added to each well, and relative luciferase units (RLUs) were measured on a ClarioStar plate reader. For each reporter cell line, positive control LEPR activation was calculated as the average RLUs stimulated by 20 nM recombinant human leptin protein (SEQ ID NO:27) minus the average RLUs of unstimulated cells and was set as maximum LEPR activation (100%). […]

cyno-LEPR = assay: STAT3-luciferase reporter assay in HEK293-STAT3Luc-cmLepR2 cells; format: cell-based, Macaca fascicularis
Text: as §1, §2

human LEPR [2] = biological target: T1, human LEPR; assay: pERK induction (AlphaLISA p-ERK1/2) in HEK293-STAT3Luc-hLepR1 cells; format: cell-based
Description: Antibodies were tested for the ability to induce phosphorylation of extracellular-signal-related kinase (pERK) in HEK293-STAT3Luc-hLepR1 cells. To measure pERK induction, cells were first cultured overnight at 37° C. in 96-well plate with DMEM medium supplemented with 10% FBS. On day 2, medium was removed, cells were washed in serum-free DMEM and incubated for an additional 24-hour in serum-free DMEM. On day 3, medium was removed and 1:4 series dilutions of antibodies A, B, and C with top concentration of 200nM in serum-free DMEM were added to the cells for 15 minutes. Testing was run in duplicates. Recombinant human leptin protein (SEQ ID NO:27) was used as a positive control in this assay. An IgGI with Fc modifications to ablate binding to Fcγ receptors was used as a negative control (IgG isotype control). Phospho-ERK1/2 was assessed in the whole cell lysate by measuring the amplified luminescence with AlphaLISA SureFire Ultra p-ERK1/2 (Thr202/Tyr204) kit (PerkinElmer, #ALSU-PERK-A-HV). Data was calculated using 4 parameters sigmoidal fit of the data (SigmaPlot software). Results, expressed in Table 12 are averaged EC50 of two independent experiments.

[3] = STAT3-luciferase, 20 hours, read-out: EC50 (nM) ± SEM
[4] = top of fitted curve vs response to 20 nM recombinant human leptin

EC50 (human LEPR [1]; [3]): 0.0491 ± 0.0044 nM
Agonism (%) ± SEM (human LEPR [1]; [4]): 105.83%
EC50 (cyno-LEPR; [3]): 0.674 ± 0.11 nM
Baseline RLU (human LEPR [2]; pERK AlphaLISA): 29762.5 RLU
Maximum RLU (human LEPR [2]; pERK AlphaLISA): 137565 RLU
EC50 (human LEPR [2]; pERK, 15 minutes, average of two independent experiments, read-out: EC50 (nM) ± STDEV): 1.07 nM
Substance: human leptin: recombinant human leptin protein (SEQ ID NO:27), positive control
Agonism (%) ± SEM (cyno-LEPR; [4]): 106.34%
